Values quoted from earlier work as cited in publication PMC9776569.

Legend:
[1] = molecular target: Cys32 (UniProt position 33, FWAEWCGPCKM); details: reduced (free thiols at Cys-32 and Cys-35)
[2] = molecular target: His6 (UniProt position 7, SDKIIHLTDDS); details: redox state not stated in this article
[3] = molecular target: Cys35 (UniProt position 36, EWCGPCKMIAP); details: reduced (free thiols at Cys-32 and Cys-35)
[4] = molecular target: Asp26 (UniProt position 27, GAILVDFWAEW); details: redox state not stated in this article
[5] = molecular target: Nterm1 (UniProt position 2, ----MSDKIIH); details: redox state not stated in this article
[6] = molecular target: Asp20 (UniProt position 21, DVLKADGAILV); details: redox state not stated in this article
[7] = molecular target: Asp48 (UniProt position 66, TNRNTDGSTDY)
[8] = molecular target: Cterm129 (UniProt position 147, IRGCRL-----)
[9] = molecular target: Asp66 (UniProt position 84, RWWCNDGRTPG)
[10] = molecular target: Nterm1 (UniProt position 19, LAALGKVFGRC)
[11] = molecular target: Tyr23 (UniProt position 41, DNYRGYSLGNW)
[12] = molecular target: Lys1 (UniProt position 19, LAALGKVFGRC)
[13] = molecular target: Lys97 (UniProt position 115, VNCAKKIVSDG)
[14] = molecular target: Glu7 (UniProt position 25, VFGRCELAAAM)
[15] = molecular target: Asp87 (UniProt position 105, ALLSSDITASV)
[16] = molecular target: Lys116 (UniProt position 134, WRNRCKGTDVQ)
[17] = molecular target: Asp18 (UniProt position 36, KRHGLDNYRGY)
[18] = molecular target: Asp119 (UniProt position 137, RCKGTDVQAWI)
[19] = molecular target: Tyr20 (UniProt position 38, HGLDNYRGYSL)
[20] = molecular target: Lys13 (UniProt position 31, LAAAMKRHGLD)
[21] = molecular target: Asp52 (UniProt position 70, TDGSTDYGILQ)
[22] = molecular target: Asp101 (UniProt position 119, KKIVSDGNGMN)
[23] = molecular target: Lys33 (UniProt position 51, WVCAAKFESNF)
[24] = molecular target: Tyr53 (UniProt position 71, DGSTDYGILQI)
[25] = molecular target: Lys96 (UniProt position 114, SVNCAKKIVSD)
[26] = molecular target: His15 (UniProt position 33, AAMKRHGLDNY)
[27] = molecular target: Glu35 (UniProt position 53, CAAKFESNFNT)
[28] = molecular target: Glu52 (UniProt position 134, PKKGVEKYGPE)
[29] = molecular target: Asp143 (UniProt position 225, NIWSEDNADSG)
[30] = molecular target: Glu135 (UniProt position 217, AQAKKEKLNIW)
[31] = molecular target: Glu43 (UniProt position 125, LVDTPETKHPK)
[32] = molecular target: His124 (UniProt position 206, NTHEQHLRKSE)
[33] = molecular target: Glu67 (UniProt position 149, TKKMVENAKKI)
[34] = molecular target: His8 (UniProt position 90, STKKLHKEPAT)
[35] = molecular target: Glu129 (UniProt position 211, HLRKSEAQAKK)
[36] = molecular target: Asp95 (UniProt position 177, AYIYADGKMVN)
[37] = molecular target: Glu75 (UniProt position 157, KKIEVEFDKGQ)
[38] = molecular target: Glu73 (UniProt position 155, NAKKIEVEFDK)
[39] = molecular target: Glu10 (UniProt position 92, KKLHKEPATLI)
[40] = molecular target: Glu57 (UniProt position 139, EKYGPEASAFT)
[41] = molecular target: Asp146 (UniProt position 228, SEDNADSGQ--)
[42] = molecular target: Glu101 (UniProt position 183, GKMVNEALVRQ)
[43] = molecular target: His46 (UniProt position 128, TPETKHPKKGV)
[44] = molecular target: His121 (UniProt position 203, KPNNTHEQHLR)
[45] = molecular target: Glu122 (UniProt position 204, PNNTHEQHLRK)
[46] = molecular target: Glu142 (UniProt position 224, LNIWSEDNADS)
[47] = molecular target: Asp40 (UniProt position 122, RLLLVDTPETK)
[48] = molecular target: Asp60 (UniProt position 60, LEVDVDDCQDV); details: redox state not stated in this article
[49] = molecular target: Glu13 (UniProt position 13, KTAFQEALDAA); details: redox state not stated in this article
[50] = molecular target: Glu95 (UniProt position 95, SGANKEKLEAT); details: redox state not stated in this article
[51] = molecular target: Glu98 (UniProt position 98, NKEKLEATINE); details: redox state not stated in this article
[52] = molecular target: Asp64 (UniProt position 64, VDDCQDVASEC); details: redox state not stated in this article
[53] = molecular target: Glu70 (UniProt position 70, VASECEVKCMP); details: redox state not stated in this article
[54] = molecular target: Glu68 (UniProt position 68, QDVASECEVKC); details: redox state not stated in this article
[55] = molecular target: Glu103 (UniProt position 103, EATINELV---); details: redox state not stated in this article
[56] = molecular target: Asp16 (UniProt position 16, FQEALDAAGDK); details: redox state not stated in this article
[57] = molecular target: Asp61 (UniProt position 61, EVDVDDCQDVA); details: redox state not stated in this article
[58] = molecular target: Asp26 (UniProt position 26, KLVVVDFSATW); details: redox state not stated in this article
[59] = molecular target: Glu56 (UniProt position 56, NVIFLEVDVDD); details: redox state not stated in this article
[60] = molecular target: Asp58 (UniProt position 58, IFLEVDVDDCQ); details: redox state not stated in this article
[61] = molecular target: Asp20 (UniProt position 20, LDAAGDKLVVV); details: redox state not stated in this article
[62] = molecular target: Glu6 (UniProt position 6, MVKQIESKTAF); details: redox state not stated in this article
[63] = molecular target: Glu47 (UniProt position 47, FHSLSEKYSNV); details: redox state not stated in this article
[64] = molecular target: Glu88 (UniProt position 88, GQKVGEFSGAN); details: redox state not stated in this article

In the case of “Escherichia coli thioredoxin 1 (EcTrx) (Escherichia coli)”, the pKa [1] is given as 7.10, the pKa [2] is given as 6.20 and the pKa [3] is given as 9.90. For the same substance, the pKa [4] was 7.50, the pKa [5] was 7.40 and the pKa [6] was 3.80.

For “Hen egg-white lysozyme (HEWL) (Gallus gallus)”, the pKa [7] is given as 1.60, the pKa [8] is given as 2.75 and the pKa [9] is given as 0.90. For the same substance, the pKa [10] was 7.90, the pKa [11] was 9.80 and the pKa [12] was 10.90. The pKa [13] was 10.30, the pKa [14] was 2.85 and the pKa [15] was 2.07. The pKa [16] was 10.40, the pKa [17] was 2.66 and the pKa [18] was 3.20. For the same substance, the pKa [19] was 10.30, the pKa [20] was 10.60 and the pKa [21] was 3.68. The pKa [22] was 4.09, the pKa [23] was 10.60 and the pKa [24] was 12.10. The pKa [25] was 10.80, the pKa [26] was 5.36 and the pKa [27] was 6.20.

In the case of “Staphylococcal nuclease (SNase) (Staphylococcus aureus)”, the pKa [28] is listed as 3.93, the pKa [29] is listed as 3.80 and the pKa [30] is listed as 3.76. For the same substance, the pKa [31] was 4.32, the pKa [32] was 5.73 and the pKa [33] was 3.76. The pKa [34] was 6.52, the pKa [35] was 3.75 and the pKa [36] was 2.16. For the same substance, the pKa [37] was 3.26, the pKa [38] was 3.31 and the pKa [39] was 2.82. For the same substance, the pKa [40] was 3.49, the pKa [41] was 3.86 and the pKa [42] was 3.81. For the same substance, the pKa [43] was 5.86, the pKa [44] was 5.30 and the pKa [45] was 3.89. The pKa [46] was 4.49 and the pKa [47] was 3.87.

In the case of Human thioredoxin (hTrx) (Homo sapiens), the pKa [48] is given as 4.20, the pKa [49] is given as 4.40 and the pKa [50] is given as 4.10. For the same substance, the pKa [51] was 3.90, the pKa [52] was 3.20 and the pKa [53] was 4.60. The pKa [54] was 4.90, the pKa [55] was 4.40 and the pKa [56] was 4.00. The pKa [57] was 5.30, the pKa [58] was 9.90 and the pKa [59] was 3.10. For the same substance, the pKa [60] was 2.80, the pKa [61] was 3.80 and the pKa [62] was 4.80. The pKa [63] was 4.10 and the pKa [64] was 3.70.
